This note sets out measurements from patent publication US20220348620A1 (WISTAR INSTITUTE OF ANATOMY AND BIOLOGY, published 2022).

Residue numbers refer to the chain shown, from its start. Numbers in names are those of the source.

By Kd is commonly meant a measure of binding affinity in units of concentration.

Assay [1] deals with T1, hexokinase-II (HK-II), endogenous in PC3 cells (human, UniProt P52789 1-917).
T1 sequence (looked up): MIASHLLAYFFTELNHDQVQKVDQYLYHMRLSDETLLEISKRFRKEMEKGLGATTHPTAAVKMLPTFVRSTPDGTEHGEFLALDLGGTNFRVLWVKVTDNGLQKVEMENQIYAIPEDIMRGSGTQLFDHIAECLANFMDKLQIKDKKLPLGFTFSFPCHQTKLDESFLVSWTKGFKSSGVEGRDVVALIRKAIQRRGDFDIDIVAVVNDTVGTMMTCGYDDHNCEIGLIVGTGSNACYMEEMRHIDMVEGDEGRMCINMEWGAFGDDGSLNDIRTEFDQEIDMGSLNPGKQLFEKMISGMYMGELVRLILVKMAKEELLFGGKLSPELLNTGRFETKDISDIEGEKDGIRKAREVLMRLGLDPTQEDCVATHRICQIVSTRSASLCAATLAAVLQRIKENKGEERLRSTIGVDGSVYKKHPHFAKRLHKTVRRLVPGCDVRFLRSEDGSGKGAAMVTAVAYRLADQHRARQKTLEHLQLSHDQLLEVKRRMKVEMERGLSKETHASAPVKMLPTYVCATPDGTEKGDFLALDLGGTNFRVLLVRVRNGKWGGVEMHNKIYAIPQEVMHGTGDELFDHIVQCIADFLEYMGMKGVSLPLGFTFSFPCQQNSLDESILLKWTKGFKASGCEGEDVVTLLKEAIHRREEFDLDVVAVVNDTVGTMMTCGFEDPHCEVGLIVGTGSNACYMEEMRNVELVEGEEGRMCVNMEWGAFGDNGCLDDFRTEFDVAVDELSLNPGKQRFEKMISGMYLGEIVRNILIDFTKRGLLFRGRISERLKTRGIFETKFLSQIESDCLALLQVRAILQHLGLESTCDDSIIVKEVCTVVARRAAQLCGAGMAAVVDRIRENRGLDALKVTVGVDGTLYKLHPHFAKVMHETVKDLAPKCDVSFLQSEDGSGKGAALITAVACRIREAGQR
As to the kind of experiment: co-immunoprecipitation with anti-Flag from transfected PC3 cells, Western blot and densitometry (AU). A general note: A western blot detects proteins with antibodies after separation by electrophoresis.

Assay [2] addresses T2, hexokinase-I (HK-I), endogenous in PC3 cells (human, UniProt P19367 1-917).
T2 sequence (looked up): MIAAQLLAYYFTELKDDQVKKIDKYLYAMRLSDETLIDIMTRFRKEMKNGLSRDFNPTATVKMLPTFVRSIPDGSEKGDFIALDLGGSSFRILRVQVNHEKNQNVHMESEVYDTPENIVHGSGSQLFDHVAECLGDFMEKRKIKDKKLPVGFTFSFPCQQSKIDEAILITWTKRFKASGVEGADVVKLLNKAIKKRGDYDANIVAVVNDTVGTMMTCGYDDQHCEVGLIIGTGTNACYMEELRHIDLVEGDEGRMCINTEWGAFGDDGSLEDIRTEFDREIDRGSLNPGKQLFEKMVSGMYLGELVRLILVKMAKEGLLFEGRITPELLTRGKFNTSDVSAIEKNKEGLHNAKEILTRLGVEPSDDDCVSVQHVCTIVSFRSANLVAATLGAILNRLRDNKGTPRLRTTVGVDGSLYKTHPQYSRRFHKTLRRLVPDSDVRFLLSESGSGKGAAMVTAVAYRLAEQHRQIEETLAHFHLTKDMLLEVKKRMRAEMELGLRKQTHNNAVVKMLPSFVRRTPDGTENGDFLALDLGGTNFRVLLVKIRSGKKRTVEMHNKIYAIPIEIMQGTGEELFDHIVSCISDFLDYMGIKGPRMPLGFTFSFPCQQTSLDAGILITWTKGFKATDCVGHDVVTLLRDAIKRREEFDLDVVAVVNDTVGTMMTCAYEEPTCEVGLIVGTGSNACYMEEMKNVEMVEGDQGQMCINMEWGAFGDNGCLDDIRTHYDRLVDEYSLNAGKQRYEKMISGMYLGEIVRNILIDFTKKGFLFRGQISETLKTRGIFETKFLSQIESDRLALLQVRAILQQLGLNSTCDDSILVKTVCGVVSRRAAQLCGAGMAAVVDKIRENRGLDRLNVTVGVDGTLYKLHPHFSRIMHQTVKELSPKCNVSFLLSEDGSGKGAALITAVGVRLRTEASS
Briefly: co-immunoprecipitation with anti-Flag from PC3 cells, Western blot.

In assay [3] the target is T3, VDAC1 (endogenous, in PC3 cell extracts) (human, UniProt P21796 2-283).
T3 construct: also called voltage-dependent anion channel-1
T3 sequence (P21796 2-283 limits assumed): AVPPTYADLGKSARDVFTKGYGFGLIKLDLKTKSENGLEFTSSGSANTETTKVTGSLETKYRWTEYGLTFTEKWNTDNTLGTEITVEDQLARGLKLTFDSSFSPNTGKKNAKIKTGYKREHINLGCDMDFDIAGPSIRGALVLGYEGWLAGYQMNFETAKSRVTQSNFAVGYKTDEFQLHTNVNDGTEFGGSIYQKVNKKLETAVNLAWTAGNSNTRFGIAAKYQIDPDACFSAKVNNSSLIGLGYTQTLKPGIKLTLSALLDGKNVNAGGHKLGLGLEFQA
The description is as above.

For assay [4], the target named is T2, hexokinase-I (HK-I), endogenous in PC3 …. As to the kind of experiment: affinity chromatography of PC3 cell extracts on beads-coupled MFF peptide #8, Western blot of bound proteins.
The target of assay [5] is T1, hexokinase-II (HK-II), endogenous in …. The assay is described as above.
Assay [6] addresses T3, VDAC1 (endogenous, in PC3 cell extracts). The description is as above.
For assay [7], the target named is T4, recombinant full length human VDAC1 (hVDAC1) (human, UniProt P21796 1-283).
T4 construct: domain: full length; also called human recombinant VDAC; recombinant VDAC1
T4 sequence (P21796 whole entry): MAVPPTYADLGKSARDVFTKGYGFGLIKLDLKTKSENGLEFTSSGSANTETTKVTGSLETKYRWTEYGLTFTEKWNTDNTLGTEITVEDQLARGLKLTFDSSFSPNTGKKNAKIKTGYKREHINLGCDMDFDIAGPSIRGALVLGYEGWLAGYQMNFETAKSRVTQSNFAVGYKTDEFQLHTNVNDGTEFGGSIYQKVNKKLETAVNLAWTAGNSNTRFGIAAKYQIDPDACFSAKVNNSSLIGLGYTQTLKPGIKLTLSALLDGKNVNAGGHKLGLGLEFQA
As to the kind of experiment: isothermal titration calorimetry, 100 µM peptide injected into 10 µM hVDAC1, 20 °C. A general note: Isothermal titration calorimetry measures the heat released or taken up as one component is titrated into another.
Protocol: (§1) Isothermal titration calorimetry (ITC). ITC experiments were performed using MlcroCal iTC200 (Malvern). Purified full-length hVDAC1 was buffer-exchanged into 25 mM HEPES-KOH (pH 7.5), 0.1 M KCl, 5% glycerol, 2% n-Octylglucoside, and 1 mM TCEP (ITC buffer). […] The ITC binding experiments were carried out at 20° C. Peptides at a concentration of 100 μM were added by 2.47 μl injections to 10 μM hVDAC1. The data collected was processed in MicroCal Origin software (Malvern).

In assay [8] the target is T4, recombinant full length human VDAC1 …. As to the kind of experiment: isothermal titration calorimetry, peptide injected into human recombinant VDAC.
Protocol: as §1
Assay [9] has as its target Dynamin-Related Protein-1 (Drp1), endogenous in PC3 cells (human, UniProt O00429 1-736, limits assumed). Briefly: co-immunoprecipitation with anti-Flag from PC3 cells, Western blot.
The target of assay [10] is T4, recombinant full length human VDAC1 …. Briefly: isothermal titration calorimetry, scrambled peptide injected into human recombinant VDAC.
Protocol: as §1

Sequence of Dynamin-Related Protein-1 (Drp1), endogenous in PC3 cells (O00429 whole entry): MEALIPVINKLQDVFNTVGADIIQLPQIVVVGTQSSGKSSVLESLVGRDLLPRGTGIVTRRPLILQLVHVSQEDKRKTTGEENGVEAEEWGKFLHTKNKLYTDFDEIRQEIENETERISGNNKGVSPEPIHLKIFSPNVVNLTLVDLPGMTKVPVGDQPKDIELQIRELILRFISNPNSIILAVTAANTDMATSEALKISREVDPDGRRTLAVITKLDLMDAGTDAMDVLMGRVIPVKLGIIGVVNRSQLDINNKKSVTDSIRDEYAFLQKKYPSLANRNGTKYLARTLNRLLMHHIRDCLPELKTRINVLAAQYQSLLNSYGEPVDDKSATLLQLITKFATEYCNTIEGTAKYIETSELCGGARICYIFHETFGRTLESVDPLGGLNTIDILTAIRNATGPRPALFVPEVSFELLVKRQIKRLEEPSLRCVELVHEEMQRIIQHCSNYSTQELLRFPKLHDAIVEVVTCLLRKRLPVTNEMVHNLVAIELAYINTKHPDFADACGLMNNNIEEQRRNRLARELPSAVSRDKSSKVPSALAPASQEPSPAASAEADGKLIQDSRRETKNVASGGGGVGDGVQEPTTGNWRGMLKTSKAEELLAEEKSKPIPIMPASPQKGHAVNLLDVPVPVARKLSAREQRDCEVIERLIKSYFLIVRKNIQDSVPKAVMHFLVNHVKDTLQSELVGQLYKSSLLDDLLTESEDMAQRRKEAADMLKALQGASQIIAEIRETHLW

B1: Flag-MFF1 Q241A (other, not shown: small tags and cut ends)
chain: MSKGTSSDTSLGRVSRAAFPSPTAAEMAEISRIQYEMEYTEGISQRMRVPEKLKVAPPNADLEQGFQEGVPNASVIMQVPERIVVAGNNEDVSFSRPADLDLIQSTPFKPLALKTPPRVLTLSERPLDFLDLERPPTTPQNEEIRAVGRLKRERSMSENAVRQNGQLVRNDSLWHRSDSAPRNKISRFQAPISAPEYTVTPSPQQARVCPPHMLPEDGANLSSARGILSLIQSSTRRAYQAILDVLDENRRPVLRGGSAAATSNPHHDNVRYGISNIDTTIEGTSDDLTVVDAASLRRQIIKLNRRLQLLEEENKERAKREMVMYSITVAFWLLNSWLWFRR
notes: also called mutant Flag-MFF Q241A
With B1, in [1], the binding result is listed as “binds”.

B2: Flag-MFF1 R225D (other, not shown: small tags and cut ends)
chain: B1 chain with R225D, A241Q
notes: also called mutant Flag-MFF R225D
As for B2, the binding result in assay [1] is on record as “binds”.

B3: Flag-MFF1 R236D (other, not shown: small tags and cut ends)
chain: B1 chain with R236D, A241Q
notes: also called mutant Flag-MFF R236D
As to B3, the binding result in assay [1] is “binds”.

B4: Flag-MFF5 (other, human, UniProt Q9GZY8-5 1-238, looked up)
chain: MAEISRIQYEMEYTEGISQRMRVPEKLKVAPPNADLEQGFQEGVPNASVIMQVPERIVVAGNNEDVSFSRPADLDLIQSTPFKPLALKTPPRVLTLSERPLDFLDLERPPTTPQNEEIRAVGRLKRERSMSENAVRQNGQLVRNDSLPVLRGGSAAATSNPHHDNVRYGISNIDTTIEGTSDDLTVVDAASLRRQIIKLNRRLQLLEEENKERAKREMVMYSITVAFWLLNSWLWFRR
notes: also called Flag-MIFFS (misprint in legend); not shown: Flag tag
As for B4, the binding result in assay [2] and in assay [3] was “no binding” each time. In the case of DGANLSSARGILSLIQSSTRRAYQQILDVL (also called MFF #8) [MFF peptide #8 (Asp217-Leu246 of MFF1)], the binding result in assay [4], in assay [5] and in [6] was “binds” in each case.

B5: MFF peptide #8-11 (Ser223-Leu243 of MFF1), wild type (peptide)
peptide: SARGILSLIQSSTRRAYQQIL
notes: Plain synthetic peptide (not the cell-permeable form) as used in ITC; also called WT MFF peptide #8-11; MFF (L) peptide #8-11
For B5, the Kd in assay [7] is ~12 µM; in [8] it was 12 µM.

B6: Flag-MFF2 (other, human, UniProt Q9GZY8-2 1-291, looked up)
chain: MAEISRIQYEMEYTEGISQRMRVPEKLKVAPPNADLEQGFQEGVPNASVIMQVPERIVVAGNNEDVSFSRPADLDLIQSTPFKPLALKTPPRVLTLSERPLDFLDLERPPTTPQNEEIRAVGRLKRERSMSENAVRQNGQLVRNDSLVTPSPQQARVCPPHMLPEDGANLSSARGILSLIQSSTRRAYQQILDVLDENRRPVLRGGSAAATSNPHHDNVRYGISNIDTTIEGTSDDLTVVDAASLRRQIIKLNRRLQLLEEENKERAKREMVMYSITVAFWLLNSWLWFRR
notes: not shown: Flag tag
Consider B6, for which the binding result in assay [9] was “no binding”.

B7: scrambled variant of MFF peptide 8#11 (peptide)
peptide: SSQLRYLARSQRITIQLIAGS
notes: Control peptide in ITC; also called MFF scrambled peptide
As for B7, the binding result in assay [10] is “no binding (tested: molar ratio about 2)”.
